Numbering of substitutions follows the chain as printed. Names may count otherwise.
What was measured:
[1] = molecular target: the molecule itself; assay: electron microscopy; cross-linked Dam1 complex on MTs examined by EM
[2] = molecular target: the molecule itself; assay: TIRF microscopy, tracer residence time; GFP-tagged and unlabelled versions of the same mutant Dam1 complex mixed 1:100 to 2 nM in all (20 pM tracer), on immobilised MTs; BRB80, 0.8 mg/ml kappa-casein, 50 mM KCl, oxygen scavengers; concentrations that support oligomeric rings

B1: Dam1 complex (complex, yeast)
chain 1: MDSASKEETLEKLDQEITVNLQKIDSNLSFCFHKITQDIIPHVATYSEICERIMDSTEWLGTMFQETGLVNLQANAAAPVGNAPVKSLVSNNVGIFPTSAEEASRQSQTDNGPNEADSAVHVNRDVHSMFNNDSIDDFHTANITSTGQILKLPDSSDEDTGSEAVPSREQTDLTGEGHGGADDEQDESTIQRQSRKRKISLLLQQQYGSSSSMVPSPIVPNKMRKQLAHEEHINNDGDNDDENSNNIESSPLKQGHHHPKGQADDNNEGPDEEESTKEVPKPGTIIHFSTNR
chain 2: MMASTSNDEEKLISTTDKYFIEQRNIVLQEINETMNSILNGLNGLNISLESSIAVGREFQSVSDLWKTLYDGLESLSDEAPIDEQPTLSQSKTK
chain 3: MDSIDEQIAIKRKELQSLQKITSLTDGLKIQLTELNEQIKEMGMNADSVAQLMNNWDSIINNISQASLGLLQYAEGDYEIGPWKDSKKKESEQSNETGLEAQENDKNDEDNDEDEDLVPLPETMVRIRVDGNE
chain 4: MEHNLSPLQQEVLDKYKQLSLDLKALDETIKELNYSQHRQQHSQQETVSPDEILQEMRDIEVKIGLVGTLLKGSVYSLILQRKQEQESLGSNSK
chain 5: MENPHEQVQANILSRIIGNVKRLNESVAILNQELVTINNRNKNLEIMGAICDNYHSSVQFNLEATNNKKPPL
chain 6: MSEDKAKLGTTRSATEYRLSIGSAPTSRRSSMGESSSLMKFADQEGLTSSVGEYNENTIQQLLLPKIRELSDSIITLDSNFTRLNFIHESLADLNESLGSLLYGIMSNSWCVEFSQAPHDIQDDLIAIKQLKSLEDEKNNLVMELSNMERGIKRKKDEQGENDLAKASQNKQFNQPLFPSSQVRKYRSYDNRDKRKPSKIGNNLQVENEEDYEDDTSSEASFVLNPTNIGMSKSSQGHVTKTTRLNNNTNSKLRRKSILHTIRNSIASGADLPIENDNVVNLGDLHPNNRISLGSGAARVVNGPVTKNRNSMFSGRAERKPTESRHSVAKKTEKKINTRPPFR
chain 7: MSEQSQLDDSTIDKLIPQIFNEMRSNLNNTTNKFPKSTGGGASDNISANSNSIRSFNSITTQSLLKESESLDKITAMIKNVTAALKNNLPVYVNQVHEVCKSTNSILDSWINIHSQAGYIHKLMSDQTYLKLINDRLHNENVNTNDEDGSTLHNVIALKKKEILDLRQKLENRKGEKDAAPAKPPNQGLNPRYGVQSGRRPVPSAGISNNGRVRKTHVPASKRPSGIPRVTNRWTKPTASSSRKMFR
chain 8: MNANKQRQYNQLAHELRELQTNLQETTKQLDIMSKQCNENLVGQLGKVHGSWLIGSYIYYMEQMLGKTQ
chain 9: MTDALEQSVLALEGTVSVLKDSVESLKCANEPSTNLASTMLQTKRVFRLVPEYDVERSKLDLIEEVEPLVRTLGDKLRKSMGRMQRELDTLQQTYELNDLRLKKNISMDDDDALNSPDMGQEYEGRDADDVVMMASSTNEELEELKKLKEKKKQLENKLEILKQK
chain 10: MGESLDRCIDDINRAVDSMSTLYFKPPGIFHNAILQGASNKASIRKDITRLIKDCNHDEAYLLFKVNPEKQSVSRRDGKEGVFDYVIKRDTDMKRNRRLGRPGEKPIIHVPKEVYLNKDRLDLNNKRRRTATTSGGGLNGFIFDTDLIGSSVISNSSSGTFKALSAVFKDDPQIQRLLYALENGSVLMEEESNNQRRKTIFVEDFPTDLILKVMAEVTDLWPLTEFKQDYDQLYHNYEQLSSKLRFIKKEVLLQDDRLKTMSQYHPSSSHDVAKIIRKEKDEIRRLEMEIANLQE
notes: Ten different subunits; also called Dam1 kinetochore complex; free Dam1 complex; copies: + + + + + + + + +
binding result [1]: binds

B2: Dam1-GFP NP complex, mock-treated (Dam1p S257A, S265A, S292A, Ask1p S200A, Spc34p T199A) (complex, yeast)
chain 1: B1 chain 1 with S200A
chain 2: B1 chain 2
chain 3: B1 chain 3
chain 4: B1 chain 4
chain 5: B1 chain 5
chain 6: B1 chain 6 with S257A, S265A, S292A
chain 7: B1 chain 7
chain 8: B1 chain 8
chain 9: B1 chain 9
chain 10: B1 chain 10 with T199A
notes: GFP-tagged complex, detected by its GFP; In the tracer assay 20 pM of this complex met 2 nM of the same mutant complex without GFP; also called Dam1 NP mock; Dam1 NP; source: recombinant Dam1 complex (E. coli BL21 Rosetta, purified); mock-treated with GST-Ipl1 and GST-Sli15 (554-698), distilled water in place of ATP; copies: + + + + + + + + +
fold increase of the average residence time on MTs against single molecules [2]: > 5 fold

B3: Dam1-GFP CP complex, phosphorylated by Ipl1 (Dam1p S20A, Ask1p S200A, Spc34p T199A; Dam1p C-terminal sites phosphorylated) (complex, yeast)
chain 1: B1 chain 1 with S200A
chain 2: B1 chain 2
chain 3: B1 chain 3
chain 4: B1 chain 4
chain 5: B1 chain 5
chain 6: B1 chain 6 with S20A
chain 7: B1 chain 7
chain 8: B1 chain 8
chain 9: B1 chain 9
chain 10: B1 chain 10 with T199A
modifications: phosphoserine at S257, S265 and S292 (by Ipl1 kinase, nearly stoichiometric)
notes: GFP-tagged complex, detected by its GFP; In the tracer assay 20 pM of this complex met 2 nM of the same phosphorylated mutant complex without GFP; also called Dam1 CP phos; Dam1 CP; source: recombinant Dam1 complex (E. coli BL21 Rosetta, purified); phosphorylated with GST-Ipl1, GST-Sli15 (554-698) and 10 mM ATP, 90 min, 30 °C; copies: + + + + + + + + +
binding result [2]: binds

B4: Dam1-GFP NP complex, phosphorylated by Ipl1 (Dam1p S257A, S265A, S292A, Ask1p S200A, Spc34p T199A; Dam1p S20 phosphorylated) (complex, yeast)
chain 1: B1 chain 1 with S200A
chain 2: B1 chain 2
chain 3: B1 chain 3
chain 4: B1 chain 4
chain 5: B1 chain 5
chain 6: B1 chain 6 with S257A, S265A, S292A
chain 7: B1 chain 7
chain 8: B1 chain 8
chain 9: B1 chain 9
chain 10: B1 chain 10 with T199A
modifications: phosphoserine at S20 (by Ipl1 kinase, nearly stoichiometric)
notes: GFP-tagged complex, detected by its GFP; In the tracer assay 20 pM of this complex met 2 nM of the same phosphorylated mutant complex without GFP; also called Dam1 NP phos; Dam1 NP; source: recombinant Dam1 complex (E. coli BL21 Rosetta, purified); phosphorylated with GST-Ipl1, GST-Sli15 (554-698) and 10 mM ATP, 90 min, 30 °C; copies: + + + + + + + + +
fold increase of the average residence time on MTs against single molecules [2]: 2 fold

B5: Dam1-GFP CP complex, mock-treated (Dam1p S20A, Ask1p S200A, Spc34p T199A) (complex, yeast)
chain 1: B1 chain 1 with S200A
chain 2: B1 chain 2
chain 3: B1 chain 3
chain 4: B1 chain 4
chain 5: B1 chain 5
chain 6: B1 chain 6 with S20A
chain 7: B1 chain 7
chain 8: B1 chain 8
chain 9: B1 chain 9
chain 10: B1 chain 10 with T199A
notes: GFP-tagged complex, detected by its GFP; In the tracer assay 20 pM of this complex met 2 nM of the same mutant complex without GFP; also called Dam1 CP mock; Dam1 CP; source: recombinant Dam1 complex (E. coli BL21 Rosetta, purified); mock-treated with GST-Ipl1 and GST-Sli15 (554-698), distilled water in place of ATP; copies: + + + + + + + + +
fold increase of the average residence time on MTs against single molecules [2]: > 5 fold

Reference: paper PMC4660060, “The molecular architecture of the Dam1 kinetochore complex is defined by cross-linking based structural modelling” (Nature Communications, 2015)
